Read-outs that look alike come from different tables or passages of the source.
Legend:
[1] = target: portal protein gp19 of phage P68 (S. aureus phage P68); assay: cryo-EM structure
[2] = target: tail fiber gp17 of phage P68 (in the virion) (S. aureus phage P68); assay: cryo-EM structure
[3] = target: lower collar protein gp18 of phage P68 (S. aureus phage P68); assay: cryo-EM structure
[4] = target: tail fiber protein gp17 of phage P68 (protein used for crystallization) (S. aureus phage P68); assay: crystal structure
[5] = target: head fiber gp14 of phage P68 (S. aureus phage P68); assay: cryo-EM structure

“portal protein gp19 of phage P68 (natural protein)” gave a stoichiometry N [1] of 12 subunits.

“tail fiber gp17 of phage P68 (in the virion) (natural protein)” showed a stoichiometry N [2] of 3 subunits.

For “lower collar protein gp18 of phage P68 (natural protein)”, the stoichiometry N [3] was 12 subunits.

“tail fiber protein gp17 of phage P68 (protein used for crystallization) (natural protein)” gave a stoichiometry N [4] of 3 subunits.

Substance “inner core protein gp22 of phage P68 (natural protein)” has a stoichiometry N ([1]; scale: inner core proteins for each portal protein) of 6.

Work on “head fiber gp14 of phage P68 (natural protein)” yielded a stoichiometry N [5] of 3 subunits.
